Reference: patent US6462173B1, “Inhibitors of phosphoserine and phosphothreonine-proline-specific isomerases” (Max-Planck-Gesellschaft zur Forderung der, priority 1997, dated 2002)
One block for each molecule: values may come before it.

Tests used:
MPM-2 antigens = experiment: GST-Pin1 pull-down / depletion of MPM-2 antigens from HeLa cell extracts, MPM-2 immunoblotting; type: binding, human; conditions: mitotic HeLa cell extracts, GST fusion proteins
Protocol: (§1) To detect Pin1-binding proteins, either HeLa cells were lysed in or Xenopus extracts were diluted in a buffer (buffer A) containing 50 mM Tris-HCl, pH 8.0, 200 mM NaCl, 100 mM NaF, 1 mM sodium orthovanadate, 10% glycerol, 1% Triton X100, 10 μg/ml aprotinin, 50 μg/ml phenylmethylsulfonyl fluoride and 1 mM DTT. The lysates were preclarified with boiled S. aureus bacteria (CalBiochem) and then incubated with 10 μl of agarose beads containing various GST-Pin1 proteins or control GST for 2 h at 4° C. The precipitated proteins were washed 5 times in the same buffer and subjected to immunoblotting analysis. Immunoprecipitation and immunoblotting analysis using MPM-2 antibody (Davis et al. 1983), which was kindly provided by J. Kuang, Pin1 antibodies (Lu et al., 1996, kindly provided by M. White or newly generated), anti-phospho.Tyr antibody (UBI), anti-Cdc25C (Ogg, et al., 1994) (from H. Piwnica-Worms and Santa Cruz Biotechnology), anti-Cdc27, anti-Plk1 (Zymed), anti-Cdc2 (Solomon, M. J., M. Glotzer, T. H. Lee, M. Philippe and M. W. Kirschner. Cell 63:1013-1024 (1991), anti-human Myt1, anti-human cyclin B1 and anti-Xenopus cyclin B were performed, as described previously in Lu and Hunter, 1995; Lu et al., 1996).
To determine whether GST-Pin1 can deplete MPM-2 antigens and to estimate what concentrations of Pin1 are required to completely deplete MPM-2 antigens, mitotic extracts were incubated with different amounts of GST-Pin1, followed by analyzing MPM-2 antigens remaining in the depleted supernatants. The total cellular Pin1 concentration in HeLa cells was estimated to be about 0.5 μM, based on immunoblotting analysis using anti-Pin1 antibodies with recombinant Pin1 protein as a standard.
To determine if the Pin1 mutants interact with mitotic phosphoproteins, GST-Pin1, -Pin1^R68,69A and -Pin1^H59A fusion proteins were incubated with interphase or mitotic HeLa cell extracts and associated proteins subjected to MPM-2 immunoblotting analysis. […] A few proteins including the most strongly reacting p55 band could still be recognized. […] Thus, mutating the residues that are implicated in binding either the substrate's putative phosphate group or the substrate's Pro residue abolish the ability of Pin1 to bind MPM-2 antigens.

Cdc25, Cdc27 = experiment: Binding of GST-Pin1 mutants to Cdc25 or Cdc27
Protocol: as §1
Several known mitotic regulators such as cyclin B, Cdc25, Myt1, Plk1 and Cdc27 are phosphorylated at mitosis. […]

mitotic GST-Cdc25 = target: T1, mitotic GST-Cdc25 (Xenopus laevis, UniProt P30309); experiment: Cdc25 activity assay (activation of cyclin B/Cdc2, H1 kinase); type: biochemical; conditions: 0.67 μM protein, 1 μM mitotic Cdc25
T1 construct: made in house
T1 sequence (P30309 1-550): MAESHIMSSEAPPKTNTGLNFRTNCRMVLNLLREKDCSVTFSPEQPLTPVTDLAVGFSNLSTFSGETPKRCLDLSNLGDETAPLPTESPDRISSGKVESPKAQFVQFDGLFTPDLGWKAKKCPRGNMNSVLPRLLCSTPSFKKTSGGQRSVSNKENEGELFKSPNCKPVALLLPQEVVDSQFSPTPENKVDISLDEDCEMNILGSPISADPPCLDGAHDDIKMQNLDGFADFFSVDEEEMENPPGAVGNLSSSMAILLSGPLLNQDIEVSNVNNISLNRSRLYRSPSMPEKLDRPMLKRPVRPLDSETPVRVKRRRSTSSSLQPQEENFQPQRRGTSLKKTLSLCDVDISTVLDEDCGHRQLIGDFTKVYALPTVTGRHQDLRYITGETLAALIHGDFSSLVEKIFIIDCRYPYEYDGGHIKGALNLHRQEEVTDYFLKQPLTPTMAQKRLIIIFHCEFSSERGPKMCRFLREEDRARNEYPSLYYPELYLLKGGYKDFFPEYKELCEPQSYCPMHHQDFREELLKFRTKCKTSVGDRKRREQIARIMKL
Protocol: Cdc2 was assayed using histone H1 as a substrate, as previously described in Murray, 1991; Lu and Hunter, (1995).
A subthreshold concentration of GST cyclin B (10 μg) was added to 1 ml of Xenopus interphase extract for thirty min at room temperature (Solomon, M. J., M. Glotzer, T. H. Lee, M. Philippe and M. W. Kirschner, Cell 63:1013-1024 (1990). This was diluted 8 fold in XB+3 mM DTT, rotated for 1 h with 3 ml of GST agarose beads, washed 3 times in XBIP (XB+500 mM NaCl and 1% NP40+2 mM DTT), washed 2 times (once overnight) in EB (80 mM β glycerol phosphate, 15 mM EGTA, 15 mM MgCl2)+2 mM DTT, 500 mM NaCl and 1% NP40, and finally twice with EB+10 mM DTT. These Cdc25 assay beads were stored at 4° C. for up to 1 month. Mitotic GST-Cdc25 was purified by incubating 22 μg of GST-Cdc25, in a Xenopus mitotic extract for 30 min at 23° C., this was diluted 8 fold in XB and rotated with 50 μl of glutathione-Agarose beads (Sigma) for 1 hr at 4° C. The beads were washed 5 times in XB-IP, twice in XB+2 mM DTT and eluted in 25 μl XB+2 mM reduced GSH. The final concentration of Mitotic GST-Cdc25 was 0.36 mg/ml. […] Phosphoimager analysis of the H1 kinase assays were quantified by the Molecular Dynamics ImageQuant 3.3 software. […] The most reproducible way to quantify the Cdc25 activity in this assay was by determining the endpoint dilution of Cdc25 which could activate Cdc2. […]

Pin1 [1] = target: T2, Pin1 (Homo sapiens, UniProt Q13526); experiment: Precipitation with GST-Pin1 beads of synthesized phosphoproteins incubated with interphase and mitotic Xenopus extracts; type: binding; design: key: +: a week but above background interaction; ++: readily detectable interaction; +++: strong interaction; conditions: mitotic Xenopus extracts
T2 construct: fusion protein containing full length Pin1 was bacterially expressed, purified; made in house
Protocol: The binding between Pin1 and all selected mitotic phosphoproteins was assayed by incubating synthesized proteins with interphase and mitotic Xenopus extracts, followed by precipitation with GST-Pin1beads. The Pin1 interactions with those proteins indicated with * were also confirmed by GST-Pin1 pull-down assay from endogenous interphase and mitotic HeLa cell extracts. +, a week but above background interaction; ++, readily detectable interaction; +++, strong interaction.
The mitotic phosphoproteins were translated in vitro using the TNT coupled transcription/translation kit (Promega) in a total volume of 10 μl in the presence of 8 μCi [^35S]methionine (1000 Ci/mmol) for 2 h at 30° C. They were then incubated in xenopus interphase and mitotic extracts as described (Stukenberg et al., 1997). These incubated clones were precipitated by Pin1 beads as described below. The Xenopus Mos and Weel clones were a kind gift of M. Murakami, G, F. Woude and J. Cooper; the Xenopus Cdc25 clone was a generous gift of W. Dunphy, T3 and T3S2 Cdc25 mutants were kindly provided by J. Maller (Izumi and Maller, 1993).
as §1
To gain a sense of the generality of the interaction between Pin1 and mitotic phosphoproteins and to confirm the Pin1 interaction with target proteins is indeed mediated by phosphorylation, the ability of Pin1 to bind other known mitotic phosphoproteins and a set of mitotic phosphoproteins identified by a systematic phosphoprotein screen (Stukenberg et al., Curr Biol 7:338-348 (1997). Proteins synthesized in vitro were phosphorylated in a cell cycle specific manner by incubating them in either Xenopus interphace or mitotic extracts. These labeled protein were subsequently incubated with GST-Pin1 beads that were extensively washed and the bound proteins analyzed by SDS-PAGE. To validate this method, Cdc25 was first tested. Again, the mitotically phosphorylated form of in vitro translated Cdc25 could be precipitated by GST-Pin1 beads. However, Cdc25 was not recognized by Pin1 if it was incubated in interphase extracts. […] Out of the 13 mitotic phosphoproteins examined, Pin1 bound 10 in a mitosis and phosphorylation-dependent manner (summarized in Table 1), including Weel, MP75 and MP110, MP75 and MP110 are Xenopus proteins related to microtubule-associated protein E-MAP-115 and the fission yeast G2 transcription factor Cdc5, respectively.

Pin1 [2] = target: T2, Pin1; experiment: Confirmation of interaction between Pin1 and predicted Pin1 substrates; conditions: Pin1 binding confirmed in vitro (SC35 inferred from colocalization)
Protocol: On the basis of amino acid preferences deduced in the 6 positions surrounding the pS-P motif for optimal Pin1 binding, a weighted screening of the SWISS-PROT sequence database. Protein sequence database screening was performed with the program INDOVINATOR, using an entropy-based weighing technique to score for relative information content at each amino acid position flanking the pS/pT-P motif with the quantitative peptide library results, which are shown qualitatively in Table 3. […] Many of these proteins are involved in regulation of the cell cycle, cytoskeletal/spindle structure, DNA replication, transcription or RNA processing (Table 4).
Several of these predicted proteins, such as Rab4, Cdc25 and NIMA, undergo mitosis-specific phosphorylation (R. Heald and F. McKeon, Cell 61:579 (1990); E. Bailly, et al., Nature 350:715 (1991); A. Blangy, et al., Cell 83:1159 (1995): J. Kuang, et al., Mol. Biol. Cell 5:135 (1994); X. S. Ye, et al., EMBO J. 14:986 (1995)). Cdc25 and NIMA also binds to Pin1 in a phosphorylation-dependent manner, as described herein. Other proteins identified in this search, however, had not been previously suspected of interacting with Pin1; therefore, a few were further investigated as example cases. […] Thus, Pin1 binds a wide functional range of mitotic phosphoproteins.

Pin1 [3] = target: T2, Pin1; experiment: Pin1 precipitation from interphase and mitotic HeLa extracts probed with antibodies to known mitotic phosphoproteins; type: binding
Protocol: as §1
Several known mitotic regulators such as cyclin B, Cdc25, Myt1, Plk1 and Cdc27 are phosphorylated at mitosis. To identify at least a few of the many Pin1 binding proteins, Pin1-binding proteins were precipitated from HeLa cells, or Xenopus extracts and probed with antibodies specific for known mitotic phosphoproteins. As shown previously, levels of Plk1 and cyclin B1 increased at mitosis, whereas similar amounts of Cdc25C were present in interphase and mitotic HeLa cells. […] Similarly, only the mitotic, but not the interphase form of Xenopus Cdc27 was precipitated by Pin1.

[4] = system: phosphorylated and unphosphorylated peptide substrates; AEPF, AAPF; experiment: PPIase activity of site-directed Pin1 mutants and parvulin; type: biochemical
Excerpt: To test these predictions from the model, site-directed Pin1 mutants were generated and their PPIase activity assayed as described herein and in K. P. Lu, S. D. Hanes, T. Hunter, Nature 380:544 (1996); K. P. Lu and T. Hunter, Cell 81:413 (1995).
Site-directed mutations of Pin1 were introduced using PCR-based techniques and verified by DNA sequencing. The corresponding mutant proteins were expressed and purified using the same procedures as those described for wild-type Pin1. PPIase activity was measured, as described previously (Lu et al., 1996), with the exception that the absorbance of p-nitroaniline (at 395 nM) was followed every second for 2-10 min. and data were analyzed offline using a kinetic computer program written by G. Tucker-Kellogg in the C.

T2 sequence (Q13526 whole entry, the tested form may be a part): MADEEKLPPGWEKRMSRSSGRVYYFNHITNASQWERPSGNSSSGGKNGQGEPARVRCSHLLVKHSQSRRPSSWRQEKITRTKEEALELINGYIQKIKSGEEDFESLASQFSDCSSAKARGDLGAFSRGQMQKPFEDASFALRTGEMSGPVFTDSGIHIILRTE

Molecule: Pin1^H59A: Pin1 mutant with Ala substitution at His-59
binding of MPM-2 antigens (MPM-2 antigens): significantly reduced compared to the wild-type protein | interaction with Cdc25 or Cdc27 (Cdc25, Cdc27): neither mutant Pin1^R68,69A nor Pin1^H59A interacted with Cdc25 or Cdc27

Molecule: Pin1^R68,69A: Pin1 mutant with Ala substitutions at Arg68 and Arg69
binding of MPM-2 antigens (MPM-2 antigens): significantly reduced compared to the wild-type protein | interaction with Cdc25 or Cdc27 (Cdc25, Cdc27): neither mutant Pin1^R68,69A nor Pin1^H59A interacted with Cdc25 or Cdc27 | effect on Cdc25 activity (mitotic GST-Cdc25): neither the mutant Pin1^R68,69A at the same concentration (0.67 μM), or BSA at a 25 fold higher concentration (15 μM) had a significant inhibitory effect on Cdc25 activity

Interaction with Pin1, Mitotic (Pin1 [1]): +++ | Binding Confirmed (Pin1 [2]): Yes
Molecule: Plk1: Polo-like kinase, mitotic phosphoprotein
precipitation by Pin1 (Pin1 [3]): bound selectively only to the mitotically hyperphosphorylated form

Binding Confirmed (Pin1 [2]): Yes
B1: Cdc25C: cell cycle regulatory protein, predicted Pin1 substrate; human Cdc25C in HeLa extracts (protein)
chain: STELFSSTREEGSSGSGPSFRSNQRKMLNLLLERDTSFTVCPDVPRTPVGKFLGDSANLSILSGGTPKRCLDLSNLSSGEITATQLTTSADLDETGHLDSSGLQEVHLAGMNHDQHLMKCSPAQLLCSTPNGLDRGHRKRDAMCSSSANKENDNGNLVDSEMKYLGSPITTVPKLDKNPNLGEDQAEEISDELMEFSLKDQEAKVSRSGLYRSPSMPENLNRPRLKQVEKFKDNTIPDKVKKKYFSGQGKLRKGLCLKKTVSLCDITITQMLEEDSNQGHLIGDFSKVCALPTVSGKHQDLKYVNPETVAALLSGKFQGLIEKFYVIDCRYPYEYLGGHIQGALNLYSQEELFNFFLKKPIVPLDTQKRIIIVFHCEFSSERGPRMCRCLREEDRSLNQYPALYYPELYILKGGYRDFFPEYMELCEPQSYCPMHHQDHKTELLRCRSQSKVQEGERQLREQIALLVKDMSP
precipitation by Pin1 (Pin1 [3]): bound selectively only to the mitotically hyperphosphorylated form

B2: Parvulin: prototype of the Pin1 family of PPIases, R68 and R69 replaced by Glu (protein, UniProt P0A9L5 2-93, looked up)
Peptidyl-prolyl cis-trans …: AKTAAALHILVKEEKLALDLLEQIKNGADFGKLAKKHSICPSGKRGGDLGEFRQGQMVPAFDKVVFSCPVLEPTGPLHTQFGYHIIKVLYRN
isomerization of pS-P peptidyl bonds ([4]; phosphorylated peptide): failed to catalyze the isomerization of pS-P peptidyl bonds | catalytic activity for the unphosphorylated peptide substrate ([4]; unphosphorylated peptide): very effective in catalyzing the P isomerization of the unphosphorylated peptide
